Source: publication PMC13132549
“And” between values parts separate entries of the source, which are not always exact repeats. Equal values may be shown once. Values belong to the substance of their own block, whether it stands above or below them.

How the values were obtained:
[1] = target: RXRα (NR2B1) ligand-binding domain (LBD); assay: SEC-MALS; 100 µL of each protein at 5 mg/mL (180 µM) injected; 40 mM potassium phosphate pH 7.4, 200 mM KCl; 25 °C
[2] = target: RXRγ (NR2B3) ligand-binding domain (LBD) (human) (UniProt P48443); assay: as above
[3] = target: RXRγ (NR2B3) ligand-binding domain (LBD) (human) (UniProt P48443); assay: ITC; 500 µM Nur77 LBD titrated into 50 µM RXRγ LBD preincubated with vehicle (DMSO) or RXR ligand; 5 °C; 0.25% DMSO; homodimer competition model (SEDPHAT) for the data without ligand
RXRα LBD (Homo sapiens) = RXRα LBD (Homo sapiens) (UniProt P19793); assay: ITC; conditions: cited from earlier work
UniProt P19793, sequence (P19793 227-458): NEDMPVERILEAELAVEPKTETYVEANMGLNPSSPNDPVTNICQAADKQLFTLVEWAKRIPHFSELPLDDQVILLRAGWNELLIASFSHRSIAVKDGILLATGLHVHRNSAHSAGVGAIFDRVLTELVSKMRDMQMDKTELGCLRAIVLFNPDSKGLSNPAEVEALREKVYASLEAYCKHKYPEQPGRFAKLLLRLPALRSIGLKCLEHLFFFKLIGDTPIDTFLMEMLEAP

stoichiometry N [1]: 2 and 4
Substance: RXRα (NR2B1) ligand-binding domain (LBD) (domain or fragment)

Substance: RXRγ (NR2B3) ligand-binding domain (LBD) (from UniProt P48443 226-463) (domain or fragment)
stoichiometry N [2]: 2 and 4

Substance: Nur77 (NR4A1) ligand-binding domain (LBD) (from UniProt P22736 356-598) (domain or fragment)
Kd [3]: 9 µM

Substance: Nurr1 LBD (from UniProt P43354)
Kd (RXRα LBD (Homo sapiens)): 4 µM
